Measured values as given in the supplement of paper PMC9112550, “Optimization of the antimicrobial peptide Bac7 by deep mutational scanning” (BMC Biology, 2022).

Test system: Escherichia coli TOP10
Assay: shrunken log2 fold change of peptide-encoding DNA abundance (4.5 h post-induction vs induction); higher = less antimicrobial activity (less host growth inhibition)
Conditions: time post-induction: 4.5 h; library: site-saturation at positions 5, 18, 19, 20
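Note: peptides expressed intracellularly from a pBAD plasmid library in pooled LB shake-flask culture, induced with 0.3% L-arabinose, DNA abundance read by NGS, three biological replicates, DESeq2 with apeglm shrinkage.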

| Sequence | shrunken log2 fold change |
| --- | --- |
| RRIRVRPPRLPRPRPRPQDIPRP | -0.328 |
| RRIRQRPPRLPRPRPRPHALPRP | -0.6 |
| RRIRFRPPRLPRPRPRPLMPPRP | -0.00679 |
| RRIRFRPPRLPRPRPRPTMRPRP | 0.605 |
| RRIRKRPPRLPRPRPRPLKDPRP | -0.22 |
| RRIRERPPRLPRPRPRPMRLPRP | 0.472 |
| RRIRKRPPRLPRPRPRPKLIPRP | 0.0851 |
| RRIRERPPRLPRPRPRPTEWPRP | -0.551 |
| RRIRHRPPRLPRPRPRPDEWPRP | -0.000921 |
| RRIRVRPPRLPRPRPRPDREPRP | 0.0132 |
| RRIRYRPPRLPRPRPRPHWPPRP | -0.322 |
| RRIRHRPPRLPRPRPRPIKKPRP | -0.06 |
| RRIRVRPPRLPRPRPRPANYPRP | -0.241 |
| RRIRYRPPRLPRPRPRPIWFPRP | -0.269 |
| RRIRRRPPRLPRPRPRPEQGPRP | 0.0344 |
| RRIRTRPPRLPRPRPRPVSHPRP | -0.265 |
| RRIRVRPPRLPRPRPRPCGMPRP | -0.00417 |
| RRIRMRPPRLPRPRPRPSQCPRP | -0.112 |
| RRIRLRPPRLPRPRPRPLYNPRP | -0.305 |
| RRIRCRPPRLPRPRPRPQFLPRP | -0.79 |
| RRIRGRPPRLPRPRPRPNMPPRP | -0.317 |
| RRIRMRPPRLPRPRPRPQRPPRP | 0.389 |
| RRIRARPPRLPRPRPRPGTMPRP | 0.351 |
| RRIRSRPPRLPRPRPRPNLEPRP | -0.144 |
| RRIRYRPPRLPRPRPRPGHAPRP | 3.02 |

| Sequence | shrunken log2 fold change |
| --- | --- |
| RRIRSRPPRLPRPRPRPILNPRP | -0.183 |
| RRIRFRPPRLPRPRPRPPPAPRP | 1.49 |
| RRIRYRPPRLPRPRPRPREQPRP | -0.659 |
| RRIRLRPPRLPRPRPRPGPWPRP | 0.325 |
| RRIRYRPPRLPRPRPRPNIPPRP | -1.09 |
| RRIRIRPPRLPRPRPRPKVAPRP | 0.283 |
| RRIRTRPPRLPRPRPRPWWPPRP | -0.0247 |
| RRIRKRPPRLPRPRPRPLYDPRP | -0.0647 |
| RRIRTRPPRLPRPRPRPSAWPRP | 0.0388 |
| RRIRWRPPRLPRPRPRPVYSPRP | -0.104 |
| RRIRLRPPRLPRPRPRPSPHPRP | -0.242 |
| RRIRCRPPRLPRPRPRPVTTPRP | -0.0492 |
| RRIRPRPPRLPRPRPRPTFGPRP | 0.191 |
| RRIRFRPPRLPRPRPRPYPIPRP | -0.281 |
| RRIRTRPPRLPRPRPRPVTVPRP | 0.0698 |
| RRIRNRPPRLPRPRPRPACYPRP | -0.265 |
| RRIRHRPPRLPRPRPRPTNGPRP | -0.154 |
| RRIRERPPRLPRPRPRPHWCPRP | 0.0281 |
| RRIRCRPPRLPRPRPRPKKCPRP | -0.186 |
| RRIRSRPPRLPRPRPRPICYPRP | -0.475 |
| RRIRHRPPRLPRPRPRPSCVPRP | -0.308 |
| RRIRSRPPRLPRPRPRPVVLPRP | 0.124 |
| RRIRKRPPRLPRPRPRPLDTPRP | 0.000649 |
| RRIRDRPPRLPRPRPRPRGEPRP | 0.267 |
| RRIRVRPPRLPRPRPRPGHQPRP | -0.0671 |

| Sequence | shrunken log2 fold change |
| --- | --- |
| RRIRYRPPRLPRPRPRPIFMPRP | -0.269 |
| RRIRDRPPRLPRPRPRPHLWPRP | 0.611 |
| RRIRQRPPRLPRPRPRPLCCPRP | -0.382 |
| RRIRRRPPRLPRPRPRPNYPPRP | 0.0594 |
| RRIRPRPPRLPRPRPRPEWYPRP | 0.203 |
| RRIRIRPPRLPRPRPRPMLCPRP | -0.0741 |
| RRIRPRPPRLPRPRPRPSHFPRP | -0.399 |
| RRIRIRPPRLPRPRPRPGVTPRP | -0.0211 |
| RRIRYRPPRLPRPRPRPYCWPRP | -1.07 |
| RRIRARPPRLPRPRPRPHRYPRP | -0.147 |
| RRIRLRPPRLPRPRPRPANMPRP | -0.0319 |
| RRIRRRPPRLPRPRPRPVQNPRP | 0.285 |
| RRIRGRPPRLPRPRPRPPDKPRP | 1.17 |
| RRIRSRPPRLPRPRPRPLTLPRP | -0.599 |
| RRIRYRPPRLPRPRPRPFPMPRP | -0.834 |
| RRIRHRPPRLPRPRPRPFAKPRP | -0.362 |
| RRIRERPPRLPRPRPRPQVGPRP | -0.0112 |
| RRIRDRPPRLPRPRPRPCTEPRP | 0.373 |
| RRIRCRPPRLPRPRPRPVLMPRP | -0.00563 |
| RRIRGRPPRLPRPRPRPRYKPRP | 0.247 |
| RRIRVRPPRLPRPRPRPTRSPRP | 0.17 |
| RRIRLRPPRLPRPRPRPRMVPRP | 0.0504 |
| RRIRLRPPRLPRPRPRPTMLPRP | -0.335 |
| RRIRWRPPRLPRPRPRPPCVPRP | 0.301 |
| RRIRCRPPRLPRPRPRPVVEPRP | 0.0964 |

| Sequence | shrunken log2 fold change |
| --- | --- |
| RRIRVRPPRLPRPRPRPHGAPRP | -0.0881 |
| RRIRYRPPRLPRPRPRPFLMPRP | -0.922 |
| RRIRRRPPRLPRPRPRPVDLPRP | 0.332 |
| RRIRDRPPRLPRPRPRPMTYPRP | -0.109 |
| RRIRTRPPRLPRPRPRPPPLPRP | 0.352 |
| RRIRHRPPRLPRPRPRPDLKPRP | -0.0314 |
| RRIRTRPPRLPRPRPRPHQCPRP | 0.021 |
| RRIRHRPPRLPRPRPRPPRLPRP | 0.0241 |
| RRIRTRPPRLPRPRPRPQYRPRP | -0.0697 |
| RRIRQRPPRLPRPRPRPRNVPRP | -0.0777 |
| RRIRDRPPRLPRPRPRPQNGPRP | -0.0018 |
| RRIRSRPPRLPRPRPRPHFQPRP | -0.275 |
| RRIRIRPPRLPRPRPRPHMCPRP | -1.25 |
| RRIRARPPRLPRPRPRPPDVPRP | 0.655 |
| RRIRIRPPRLPRPRPRPDASPRP | -0.00609 |
| RRIRPRPPRLPRPRPRPSKYPRP | -0.528 |
| RRIRGRPPRLPRPRPRPQREPRP | 0.225 |
| RRIRPRPPRLPRPRPRPRPVPRP | 0.528 |
| RRIRTRPPRLPRPRPRPITKPRP | 0.0123 |
| RRIRIRPPRLPRPRPRPHPNPRP | -0.404 |
| RRIRHRPPRLPRPRPRPYVYPRP | -0.0796 |
| RRIRFRPPRLPRPRPRPIWSPRP | 0.0199 |
| RRIRKRPPRLPRPRPRPYFGPRP | -0.711 |
| RRIRDRPPRLPRPRPRPDDPPRP | -0.00152 |
| RRIRWRPPRLPRPRPRPTGEPRP | 0.306 |

| Sequence | shrunken log2 fold change |
| --- | --- |
| RRIRQRPPRLPRPRPRPELWPRP | 0.27 |
| RRIRVRPPRLPRPRPRPHTPPRP | -0.271 |
| RRIRTRPPRLPRPRPRPGIWPRP | -0.0153 |
| RRIRQRPPRLPRPRPRPAQSPRP | 0.29 |
| RRIRCRPPRLPRPRPRPQVLPRP | -0.0248 |
| RRIRLRPPRLPRPRPRPHGKPRP | -0.191 |
| RRIRCRPPRLPRPRPRPGLFPRP | 0.154 |
| RRIRSRPPRLPRPRPRPTPIPRP | 0.0944 |
| RRIRARPPRLPRPRPRPIVLPRP | -0.121 |
| RRIRNRPPRLPRPRPRPAYDPRP | -0.119 |
| RRIRNRPPRLPRPRPRPCCQPRP | -0.6 |
| RRIRSRPPRLPRPRPRPQDFPRP | -0.161 |
| RRIRKRPPRLPRPRPRPGGKPRP | 0.123 |
| RRIRTRPPRLPRPRPRPEHDPRP | -0.0214 |
| RRIRWRPPRLPRPRPRPLYDPRP | -0.0701 |
| RRIRYRPPRLPRPRPRPNEMPRP | 0.0143 |
| RRIRDRPPRLPRPRPRPIHYPRP | -0.0149 |
| RRIRYRPPRLPRPRPRPKHTPRP | -0.567 |
| RRIRHRPPRLPRPRPRPNGPPRP | -0.0992 |
| RRIRARPPRLPRPRPRPTMTPRP | 0.9 |
| RRIRERPPRLPRPRPRPKQKPRP | -0.0338 |
| RRIRDRPPRLPRPRPRPNAFPRP | -0.0726 |
| RRIRHRPPRLPRPRPRPWQLPRP | -0.016 |
| RRIRPRPPRLPRPRPRPYQTPRP | 0.0331 |
| RRIRIRPPRLPRPRPRPDKSPRP | -0.0563 |
